The values that follow come from patent US20040214227A1, “Bioluminescence resonance energy transfer (bret) fusion molecule and method of use” (priority 1999, published 2004).

Series [1] relates to HeLa cells transfected with the apoptosis Rluc:Caspase:EYFP sensor. The series is described as follows: apoptosis induction BRET assay, Rluc:Caspase:EYFP sensor. The format is cell-based. Particulars: 1 μM staurosporine, 5 hours, 37° C.; coelenterazine h; ratios decreased. A general note: BRET reads energy transfer from a luciferase to a nearby fluorophore.
Protocol: pCEP4/Rluc-EYFP and pCEP4/Rluc-caspase-EYFP DNAs were transfected into HeLa cell using LipofectAMINE (BRL/Gibco-Life technologies) in 100 mm dishes as described in the manufacturer's protocol. 24 hours post-transfection, transfected cells were harvested and distributed into 96-well microtiterplates (white Optiplate from Packard) at a density of 30,000 cells per well. The following day, cells were induced to undergo apoptosis using 1 μM staurosporine dissolved in ISCOVE media (BRL/Gibco-Life technologies) without serum and phenol red at 37° C. (total volume here is 100 μl) for 5 hours. 50 μl of BRET buffer (PBS Ca^2+/Mg^2++glucose without aprotinin) and 50 μl of coelenterazine h (20 μM) were added to start the bioluminescence reaction. Light emissions were detected using the BRETCount (read length 1 sec for each filter, temperature 25° C.). Data was collected 10 minutes after the addition of coelenterazine h. The assay was done in quadruplicate.
Series [2] concerns HeLa cells transfected with pGFP1::Rluc. Kind of series: apoptosis induction BRET assay, control construct without caspase-3 site. The format is cell-based. Particulars: 1 μM staurosporine, 5 hours. The procedure: (§1) PGFP1:caspase-3:Rluc DNAs and the original plasmid pGFP1::Rluc (without the caspase-3 site) were transfected into HeLa cell using LipofectAMINE (BRL/Gibco-Life technologies) in 100 mm dishes and 8 μg of plasmid DNA as described in the manufacturer's protocol. Twenty-four hours post-transfection transfected cells were harvested and distributed into 96-well microtiterplate (white Optiplate from Packard) at a density of 30 000 cells per well. The following day, cells were washed with PBS and were induced to undergo apoptosis by adding 100 μl of Iscove media without serum and phenol red (BRL/Life Technologies) containing staurosporine at a final concentration of 1 μM (+inducer; see FIG. 13) or 100 μl of Iscove alone (-inducer). Cells were incubated for 5 hours at 37° C. After this period, 50 μl of BRET buffer (PBS Ca^2+/Mg^2++glucose without aprotinin) and 50 μl of DeepBlueC (20 μM) were added to start the bioluminescence reaction. Total assay volume was 200 μl. Light emissions were detected using the BRETCount (read length of 1 sec. for each filter, SPC mode, temperature 25° C.).

The subject of series [3] is HeLa cells transfected with the GFP1:Caspase-3:Rluc sensor. Kind of series: apoptosis induction BRET assay, GFP1:Caspase-3:Rluc sensor. Format: cell-based. Particulars: 1 μM staurosporine, 5 hours, 37° C.; DeepBlueC; at time zero; ratio decreased. On the procedure: as §1
In series [4] the target is GFP1:caspase-3:Rluc fusion protein expressed in HeLa cells (pGFP1:caspase-3:Rluc) (Aequorea victoria; Renilla) [GFP: P42212]. Kind of series: cell-based or functional assay.
Series [5] deals with Rluc:caspase:EYFP fusion protein expressed in HeLa cells (pCEP4/Rluc-caspase-EYFP) (Renilla) (UniProt P27652). The series is described as follows: cell-based or functional assay.
Series [6] addresses Rluc:enterokinase:EYFP fusion protein, N-terminal His tag, purified from bacteria (pQE-32) (UniProt P27652).
The target of series [7] is Rluc:EYFP fusion protein, N-terminal His tag, purified from bacteria (pQE-32) (UniProt P27652).
Sequence of Rluc:EYFP fusion protein, N-terminal His tag, purified from bacteria (pQE-32) (P27652 whole entry, the tested form may be a part): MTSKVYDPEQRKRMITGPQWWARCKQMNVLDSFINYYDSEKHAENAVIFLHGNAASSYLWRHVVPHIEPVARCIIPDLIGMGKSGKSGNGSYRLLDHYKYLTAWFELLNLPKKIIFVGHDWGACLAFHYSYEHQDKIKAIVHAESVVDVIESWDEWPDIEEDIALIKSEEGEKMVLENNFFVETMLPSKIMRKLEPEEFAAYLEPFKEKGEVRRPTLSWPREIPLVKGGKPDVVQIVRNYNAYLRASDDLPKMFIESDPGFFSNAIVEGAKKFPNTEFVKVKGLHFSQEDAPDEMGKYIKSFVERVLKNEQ

Sequence of Rluc:enterokinase:EYFP fusion protein, N-terminal His tag, purified from bacteria (pQE-32) (P27652 other isoform, or with tags, fused parts or gaps): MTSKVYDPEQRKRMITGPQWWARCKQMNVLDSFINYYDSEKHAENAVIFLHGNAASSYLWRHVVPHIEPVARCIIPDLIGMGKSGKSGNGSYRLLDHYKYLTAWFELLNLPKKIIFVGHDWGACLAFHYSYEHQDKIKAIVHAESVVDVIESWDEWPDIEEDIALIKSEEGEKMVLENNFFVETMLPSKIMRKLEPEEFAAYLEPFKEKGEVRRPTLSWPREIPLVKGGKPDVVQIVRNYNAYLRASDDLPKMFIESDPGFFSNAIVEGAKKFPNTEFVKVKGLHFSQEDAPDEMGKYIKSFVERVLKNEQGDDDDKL
Sequence of Rluc:caspase:EYFP fusion protein expressed in HeLa cells (pCEP4/Rluc-caspase-EYFP) (Renilla) (P27652 other isoform, or with tags, fused parts or gaps): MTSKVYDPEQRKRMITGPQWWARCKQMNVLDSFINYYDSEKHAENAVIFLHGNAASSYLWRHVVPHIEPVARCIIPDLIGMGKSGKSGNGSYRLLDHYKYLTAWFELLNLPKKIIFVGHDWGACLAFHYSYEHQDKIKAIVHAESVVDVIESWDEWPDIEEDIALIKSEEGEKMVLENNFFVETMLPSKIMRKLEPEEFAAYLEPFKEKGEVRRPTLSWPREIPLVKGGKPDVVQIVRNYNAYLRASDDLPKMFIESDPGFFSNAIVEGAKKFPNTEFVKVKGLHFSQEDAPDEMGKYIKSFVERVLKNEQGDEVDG

`CN[C@@H]1C[C@H]2O[C@@](C)([C@@H]1OC)n1c3ccccc3c3c4c(c5c6ccccc6n2c5c31)C(=O)NC4` [staurosporine]: the BRET ratio change in series [1] is 0.1 unit; in series [3], 0.72 unit. The “change in BRET ratio” value in series [2] is on record as “No change in BRET ratio”.

With “cellular caspase-3 (HeLa cells) (from UniProt P42574 29-277) (enzyme)”, the BRET ratio change in transfected HeLa cells after 5 hours of apoptosis induction by 1 uM staurosporine (unit (BRET ratio)) in series [4] stood at 0.72; in series [5] it was 0.1.

On to “enterokinase enzyme (Invitrogen, Carlsbad, Calif.)”, for which the “BRET ratio (emission at 550 nm / 470 nm) over four hours, purified protein with two units of enterokinase” value in series [6] is “Only the ratio for the construct Rluc:enterokinase:EYFP in the presence of the enterokinase enzyme decreased over time”; in series [7], “The ratios from the negative controls (Rluc and Rluc:EYFP) did not change over time when in the presence or absence of the enterokinase enzyme”.
